{"source": "paper PMC8429728", "about": "“TNK1 is a ubiquitin-binding and 14-3-3-regulated kinase that can be targeted to block tumor growth” (Nature Communications, 2021)", "key": {"[1]": {"molecular_target": "FLAG-TNK1 ΔUBA (1–580) (human) (UniProt Q13470)", "sequence (Q13470 1-580, stated change not applied)": "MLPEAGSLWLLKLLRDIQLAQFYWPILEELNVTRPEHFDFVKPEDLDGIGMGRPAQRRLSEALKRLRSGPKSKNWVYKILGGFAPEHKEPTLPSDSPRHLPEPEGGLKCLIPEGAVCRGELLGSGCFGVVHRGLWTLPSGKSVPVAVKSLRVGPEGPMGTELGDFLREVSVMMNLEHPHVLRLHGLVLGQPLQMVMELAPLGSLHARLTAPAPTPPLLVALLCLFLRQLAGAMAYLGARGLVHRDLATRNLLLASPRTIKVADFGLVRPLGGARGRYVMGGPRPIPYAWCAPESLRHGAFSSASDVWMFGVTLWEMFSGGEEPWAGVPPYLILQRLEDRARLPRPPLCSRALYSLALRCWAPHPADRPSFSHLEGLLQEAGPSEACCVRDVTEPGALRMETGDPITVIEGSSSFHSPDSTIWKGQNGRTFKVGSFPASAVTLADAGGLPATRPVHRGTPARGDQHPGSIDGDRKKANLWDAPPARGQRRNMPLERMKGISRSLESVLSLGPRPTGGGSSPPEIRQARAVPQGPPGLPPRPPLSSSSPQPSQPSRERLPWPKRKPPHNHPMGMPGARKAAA", "experiment": "co-IP; FLAG-TNK1 (WT or mutants) precipitated on anti-DYKDDDDK resin from HEK-293T lysate (10 mM HEPES KOH pH 7.5, 150 mM KCl, 0.01% IGEPAL), 1 h 4 °C, washed with PBS; immunoblotted for 14-3-3 or ubiquitin; in Fig. 2c cells treated with 1 uM kinase inhibitors for 4 h"}, "[2]": {"molecular_target": "Biotin-(4xPEG)-RNKGISRp… (human)", "experiment": "BLI; biotin-tagged peptide loaded on streptavidin biosensors; 14-3-3ζ 50–1000 nM, 4 s association, 120 s dissociation; 0.001% TBST; 30 °C; Kd = Koff/Kon, mean of 3 runs"}, "14-3-3ζ": {"molecular_target": "14-3-3ζ (UniProt P63104)", "experiment": "in vitro europium/Cy5 FRET binding assay"}}}
{"substance": "14-3-3 (endogenous, isoform not told) (from UniProt P63104 1-245) (natural protein)", "values": [{"measurement": "fold increase in interaction with 14-3-3 compared to WT TNK1", "setting": "[1]", "value": 4, "unit": "fold"}]}
{"substance": "14-3-3ζ (purified, from the GST-14-3-3ζ plasmid) (from UniProt P63104 1-245) (natural protein)", "values": [{"measurement": "Kd", "setting": "[2]", "value": 3.39, "unit": "µM"}]}
{"substance": "TNK1 (from UniProt Q13470) pS500/pS502/pS505 peptide", "values": [{"measurement": "binding against the reference", "setting": "14-3-3ζ; reference: pS502 mono-phosphorylated peptide, sites S500,S505", "value": "lost"}]}
{"substance": "TNK1 (from UniProt Q13470) pS502 peptide", "values": [{"measurement": "binding against the reference", "setting": "14-3-3ζ; reference: non-phosphorylated peptide, sites S502", "value": "gained"}]}
